Reference: paper PMC4575486, “GDF-5 can act as a context-dependent BMP-2 antagonist” (BMC Biology, 2015)
Like-named read-outs stand apart in the source and are kept apart here. One block for each molecule: values may come before it.

Legend:
[1] = target: T1, extracellular domain of human BMPR-IA (human, UniProt P36894 24-152)
[2] = target: T1, extracellular domain of human BMPR-IA; experiment: SPR; quality control of the recombinant ligands, as previously described (ref. 17)
[3] = target: T1, extracellular domain of human BMPR-IA; experiment: cell-based or functional assay

T1 sequence (P36894 24-152): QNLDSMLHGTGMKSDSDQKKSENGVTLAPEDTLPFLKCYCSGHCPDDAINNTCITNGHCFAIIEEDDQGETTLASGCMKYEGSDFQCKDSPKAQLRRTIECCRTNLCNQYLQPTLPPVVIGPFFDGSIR

inhibition of ALP expression induced by 20 nM BMP-2 in C2C12 cells by increasing concentrations of GDF-5 R57A, IC50 [1]: 5 nM
Kd [2]: 1.6 nM
Molecule: GDF-5 R57A (growth and differentiation factor 5, variant R57A) (ligand)

SMAD-1 phosphorylation in ATDC5 and C2C12 cells; concentration needed for phospho-SMAD levels comparable to BMP-2 [3]: ~10 fold
bone formation in the rat orthotopic (calvaria) model; amount of protein needed for the same ossified surface area as BMP-2 or GDF-5 R57A [3]: ~20 fold
inhibition of ALP expression induced by 20 nM BMP-2 in C2C12 cells by increasing concentrations of wild-type GDF-5, IC50 [3]: 70 nM
Kd ([2]; both partners purified): 20 nM
B1: human GDF-5 (growth and differentiation factor 5), wild type (ligand, UniProt P43026 382-501, looked up)
chain: APLATRQGKRPSKNLKARCSRKALHVNFKDMGWDDWIIAPLEYEAFHCEGLCEFPLRSHLEPTNHAVIQTLMNSMDPESTPPTCCVPTRLSPISILFIDSANNVVYKQYEDMVVESCGCR
notes: human growth and differentiation factor 5, recombinant from E. coli; Homodimer; also called wild-type GDF-5; GDF-5WT; source: E. coli, purified (as previously described)
